Non-standard residues stand in square brackets, D forms with d. No end group written: not given here. *: point of attachment. pY = N[C@@H](Cc1ccc(OP(=O)(O)O)cc1)C(=O)O; NBD = O=[N+]([O-])c1ccc(*)c2nonc12; βAla = NCCC(=O)O
Target: Alkaline phosphatase (Biomatik, Cat. No. A1130)
Experiment: cell-based or functional assay

Binder: {NBD}-[βAla]LL[pY]LL [phosphopentapeptide 7, NBD-βA-LLpYLL]
- half-life of 7 at 100 µM with 0.5 U/mL ALP: 127 min
- half-life of 7 at 200 µM with 0.5 U/mL ALP: 112 min
- half-life of 7 at 400 µM with 0.5 U/mL ALP: 126 min

Binder: {NBD}-[βAla]LLLL[pY] [L-phosphopentapeptide 5, NBD-βA-LLLLpY]
- half-life of 5 (400 µM) with 0.1 U/mL ALP: 122 min
- half-life of 5 at 100 µM with 0.5 U/mL ALP (LC-MS): 27.3 min
- half-life of 5 at 200 µM with 0.5 U/mL ALP (LC-MS): 21.6 min
- half-life of 5 at 400 µM with 0.5 U/mL ALP (LC-MS): 30.6 min

Binder: {NBD-βAla}-[dL][dL][dL][dL][pY] [phosphopentapeptide 9, NBD-βA-llllpY]
- half-life of 9 at 100 µM with 0.5 U/mL ALP: 24.6 min
- half-life of 9 at 200 µM with 0.5 U/mL ALP: 21.6 min
- half-life of 9 at 400 µM with 0.5 U/mL ALP: 27 min

Source: patent publication US20240294570A1 (BRANDEIS UNIVERSITY, published 2024)
